# Legend:
# [1] = biological target: GvpA fused to NGFP or CGFP (Halobacterium salinarum) (UniProt P08958); assay: split reporter (BiFC, NanoBiT); split-GFP of A/A with untagged GvpC, GvpN and GvpO co-produced under the P2 promoter (A/A + CNO)
# [2] = biological target: GvpA fused to NGFP or CGFP (Halobacterium salinarum) (UniProt P08958); assay: split reporter (BiFC, NanoBiT); split-GFP (NGFP and CGFP of salt-stable mGFP2) in Hfx. volcanii transformants, 24 h 37 °C then 24 h 30 °C; relative fluorescence (rf) against the wild type; the highest of eight tag combinations is given
# GvpA fused to NGFP or CGFP (Halobacterium salinarum), sequence (P08958 whole entry, the tested form may be a part): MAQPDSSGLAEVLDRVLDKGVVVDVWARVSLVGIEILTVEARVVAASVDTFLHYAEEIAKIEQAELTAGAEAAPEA
relative fluorescence (rf) [1] [LAU/mm^2],relative fluorescence (rf) [2] [LAU/mm^2],Substance
5.12,< 2,GvpA fused to NGFP or CGFP (from UniProt P08958 1-76) (natural protein)
–,< 2,GvpC fused to NGFP or CGFP (from UniProt P24574 1-382) (natural protein)

# Reference: paper PMC9372576
